Experimental data as given in FireProtDB (doi:10.1002/pro.5560041213).

B1: High-potential iron-sulfur protein isozyme 1, P04168 (parent)
chain: EPRAEDGHAHDYVNEAADASGHPRYQEGQLCENCAFWGEAVQDGWGRCTHPDFDEVLVKAEGWCSVYAPAS

Variants of: B1
Conditions: Halorhodospira halophila, Thermal, DSC, reversible: yes, structure 2HIP, whole UniProt chain shown

Variant	Tm (pH 9, TAPS 20 mM) [°C]	Tm (pH 10, CAPS 20 mM) [°C]	Tm (pH 10.8, CHES 20 mM) [°C]	Tm (pH 7, MOPS 20 mM) [°C]
EPRAEDGHAHDFVNEAADASGHPRYQEGQLCENCAFWGEAVQDGWGRCTHPDFDEVLVKAEGWCSVYAPAS [Y12F]	54.4	54.2	37.1	
EPRAEDGHAHDHVNEAADASGHPRYQEGQLCENCAFWGEAVQDGWGRCTHPDFDEVLVKAEGWCSVYAPAS [Y12H]	39			42.2
EPRAEDGHAHDWVNEAADASGHPRYQEGQLCENCAFWGEAVQDGWGRCTHPDFDEVLVKAEGWCSVYAPAS [Y12W]				37.4
